The values that follow come from publication PMC8448959 (ACS chemical biology, 2021).

Read-outs that look alike come from different tables or passages of the source. Square brackets hold non-standard residues; d marks the D form. Ends that are not written are not given here. * marks the point of attachment. Lys(Et,iPr) = CCN(CCCC[C@H](N)C(=O)O)C(C)C; 4‑piperidine cap = not defined here; cyclohexyl = C1CCC(*)CC1

What all share (assay): AlphaScreen or HTRF
(In general: In Alpha technology, singlet oxygen from a donor bead excites a nearby acceptor bead.)

Assay [1] addresses T1, CDYL2 chromodomain (residues 1-75), C-terminal His-tag (UniProt Q8N8U2 1-75).
T1 sequence (looked up): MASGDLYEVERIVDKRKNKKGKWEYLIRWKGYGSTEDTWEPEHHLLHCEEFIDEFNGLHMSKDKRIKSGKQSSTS

In assay [2] the target is T2, CBX7 chromodomain (residues 8-62), C-terminal His-tag (UniProt O95931 8-62).
T2 sequence (looked up): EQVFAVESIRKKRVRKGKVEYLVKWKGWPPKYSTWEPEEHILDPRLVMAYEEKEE

Assay [3] has as its target T3, MPP8 chromodomain (residues 55-116), N-terminal His-tag (UniProt Q99549-1 55-116).
T3 sequence (looked up): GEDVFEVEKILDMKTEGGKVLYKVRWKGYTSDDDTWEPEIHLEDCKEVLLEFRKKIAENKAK

The target of assay [4] is T2, CBX7 chromodomain (residues 8-62), …. This is another data set of the same source.
Assay [5] concerns the target T3, MPP8 chromodomain (residues 55-116), …. This is another data set of the same source.

One may read the IC50 as the concentration that gives 50% inhibition. Read a high IC50 as weaker potency in that assay. In the case of {4‑piperidine cap}-FAFK(cyclohexyl)S-OMe (reading uncertain; also: Lys4: lysine mimetic with a cyclohexyl substituent) [UNC6217], the IC50 in assay [1] was 70 nM; in assay [2] it was above 30000 nM; in assay [3], 400 nM.

B1: UNC6218 (peptide)
chain: {4‑piperidine cap}-FAFKS-OMe
modifications: reading uncertain; also: Lys4: lysine mimetic with a tetrahydropyran substituent
On to B1, for which the concentration for half-maximal inhibition (IC50) in assay [1] was 100 nM; in assay [2], above 30000 nM; in assay [3] it was 500 nM.
In the case of {4‑piperidine cap}-FAFKS-OMe (reading uncertain; also: lysine mimetic with a piperidine substituent) [UNC6127], the 50% inhibitory concentration (IC50) in assay [1] was 200 nM; in assay [2] it was above 30000 nM; in assay [3], 700 nM.
With FAF[Lys(Et,iPr)]S-OMe (not fully specified (N-terminus); also: N-terminal cap R1 not given here) [UNC6263], the IC50 in assay [4] was found to be 6000 nM; in assay [5] it was 900 nM.

B2: UNC6216 (peptide)
chain: FAFKS
modifications: N-terminal 4-piperidine cap; lysine mimetic with a methyl-cyclopentyl amine; C-terminal methyl ester
Turning to B2, the results for the 50% inhibitory concentration (IC50) in assay [1], in assay [2] and in assay [3] were 90 nM, above 30000 nM and 450 nM, respectively.

B3: UNC6254 (peptide)
chain: FAFKS
modifications: N-terminal 4-piperidine cap; lysine mimetic with increased steric bulk on the lysine amine; C-terminal methyl ester
As to B3, the concentration for half-maximal inhibition (IC50) is 200 nM in assay [1], above 30000 nM in assay [2] and 800 nM in assay [3].
FAF[Lys(Et,iPr)]S-OMe (not fully specified (N-terminus); also: N-terminal cap R1 not given here) [UNC6257]: the IC50 in assay [4] was 7000 nM; in assay [5], 400 nM.
As to {4‑piperidine cap}-FAFKS-OMe (reading uncertain; also: Lys4: lysine mimetic with a pyrroline substituent) [UNC6262], the IC50 in assay [1] was 700 nM; in assay [2], above 30000 nM; in assay [3] it was 1400 nM.
